Results on 6 molecules are retold here after US20250276070A1 (HOSPITAL FOR SICK CHILDREN, published 2025).

In one experiment the target is soluble CD4 (UniProt P01730 26-390). Briefly: BLI, His-tagged target on Ni-NTA. For orientation: Biolayer interferometry detects binding as a change in optical thickness at a sensor tip.
A further experiment has as its target T1, T-01 MB IgG1 LALAP K288A.
T1 construct: also called K288A+LALAP
Briefly: BLI, His-tagged receptor on Ni-NTA.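 Further: octet RED96 biolayer interferometry of Fc-mutant Multabodies binding human FcγRI, FcγRIIa or FcγRIIb, with the His-tagged receptors captured on Ni-NTA biosensors.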

The target of experiment [1] is T-01 MB IgG1 LALA P329G (LALAP). Briefly: BLI, His-tagged receptor on Ni-NTA.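 Further: octet RED96 biolayer interferometry of Fc-mutant Multabodies binding human FcγRI, FcγRIIa or FcγRIIb, with the His-tagged receptors captured on Ni-NTA biosensors.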
The next experiment addresses T2, T-01 MB.v2 IgG1 WT.
T2 construct: also called Multabody v2
Briefly: BLI, His-tagged receptor on Ni-NTA.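 Further: octet RED96 biolayer interferometry of Fc-mutant Multabodies binding human FcγRI, FcγRIIa or FcγRIIb, with the His-tagged receptors captured on Ni-NTA biosensors.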

For a further experiment, the target named is T-01 MB IgG1 I253A. Briefly: BLI, His-tagged receptor on Ni-NTA.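 Further: octet RED96 biolayer interferometry of Fc-mutant Multabodies binding human FcγRI, FcγRIIa or FcγRIIb, with the His-tagged receptors captured on Ni-NTA biosensors.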
The target in the next experiment is T3, T-01 MB IgG1 WT.
T3 construct: also called T-01 MB with wild-type IgG1 Fc
Briefly: BLI, His-tagged receptor on Ni-NTA.

The next experiment has as its target T-01 MB IgG1 K288A. Briefly: BLI, His-tagged receptor on Ni-NTA.
The next experiment deals with T-01 MB IgG2 K288A P329G. Briefly: BLI, His-tagged receptor on Ni-NTA.
The target of another experiment is T-01 MB IgG4 WT. Briefly: BLI, His-tagged receptor on Ni-NTA.
Experiment [2] has as its target T4, T-01 MB.v2 IgG1 M428L N434S (LS).
T4 construct: also called T-01 MB.v2 IgG1 LS
Briefly: BLI, His-tagged receptor on Ni-NTA.

For another experiment, the target named is T-01 MB IgG2 WT. Briefly: BLI, His-tagged receptor on Ni-NTA.
The target in a further experiment is T-01 MB IgG1 P329G. Briefly: BLI, His-tagged receptor on Ni-NTA.
The next experiment concerns the target T5, T-01 MB IgG1 LALAP I253A.
T5 construct: also called I253A+LALAP
Briefly: BLI, His-tagged receptor on Ni-NTA.

In experiment [3] the target is T6, T-01 MB IgG1 L234A L235A (LALA).
T6 construct: also called T-01 MB IgG1 LALA
Briefly: BLI, His-tagged receptor on Ni-NTA.

The next experiment has as its target T-01 MB IgG1 I253V. Briefly: BLI, His-tagged receptor on Ni-NTA.
For a further experiment, the target named is T7, BG5050 SOSIP.664 D368R (HIV-1).
T7 construct: also called BG505 SOSIP D368R; BG505 SOSIP.664_D368R trimer
Briefly: BLI, His-tagged target on Ni-NTA.

What is called Kd is the equilibrium constant for the complex coming apart. High values mean lower affinity, low ones higher affinity. Broadly, the koff is the first-order rate constant of dissociation. Higher therefore signals a short-lived complex. As usually defined, the kon is the second-order rate constant of association.

B1: N49P7 IgG1 (antibody, V domains shown)
VH: ADLVQSGAVVKKPGDSVRISCEAQGYRFPDYIIHWIRRAPGQGPEWMGWMNPMGGQVNIPWKFQGRVSMTRDTSIETAFLDLRGLKSDDTAVYYCVRDRSNGSGKRFESSNWFLDLWGRGTAVTIQS
VL: QSALTQPRSVSASPGQSVTISCTGTHNLVSWCQHQPGRAPKLLIYDFNKRPSGVPDRFSGSGSGGTASLTITGLQDDDDAEYFCWAYEAFGGGTKLTVLG
For B1, the binding result with soluble CD4 is “no binding”.

B2: 10E8v4 IgG1 (antibody, V domains shown)
VH: EVRLVESGGGLVKPGGSLRLSCSASGFDFDNAWMTWVRQPPGKGLEWVGRITGPGEGWSVDYAESVKGRFTISRDNTKNTLYLEMNNVRTEDTGYYFCARTGKYYDFWSGYPPGEEYFQDWGQGTLVIVSS
VL: SELTQDPAVSVALKQTVTITCRGDSLRSHYASWYQKKPGQAPVLLFYGKNNRPSGIPDRFSGSASGNRASLTITGAQAEDEADYYCSSRDKSGSRLSVFGGGTKLTVLS
Regarding B2, the binding result with soluble CD4 is recorded as “no binding”.

B3: human Fcγ receptor I (hFcγRI) (receptor, UniProt P12314 16-288, looked up)
chain: QVDTTKAVITLQPPWVSVFQEETVTLHCEVLHLPGSSSTQWFLNGTATQTSTPSYRITSASVNDSGEYRCQRGLSGRSDPIQLEIHRGWLLLQVSSRVFTEGEPLALRCHAWKDKLVYNVLYYRNGKAFKFFHWNSNLTILKTNISHNGTYHCSGMGKHRYTSAGISVTVKELFPAPVLNASVTSPLLEGNLVTLSCETKLLLQRPGLQLYFSFYMGSKTLRGRNTSSEYQILTARREDSGLYWCEAATEDGNVLKRSPELELQVLGLQLPTP
As to B3, the Kd is 269 pM with T-01 MB IgG1 LALAP K288A; 684 pM in experiment [1]; below 1 pM in the experiment with T-01 MB.v2 IgG1 WT; below 1 pM with T-01 MB IgG1 I253A; below 1 pM in the experiment with T-01 MB IgG1 WT; below 1 pM with T-01 MB IgG1 K288A. Further, the Kd with T-01 MB IgG2 K288A P329G was 132 pM; with T-01 MB IgG4 WT, below 1 pM; in experiment [2], below 1 pM; with T-01 MB IgG2 WT, 2030 pM; with T-01 MB IgG1 P329G it was 37.5 pM; in the experiment with T-01 MB IgG1 LALAP I253A it was 768 pM. Also, the Kd was 29.7 pM in experiment [3] and below 1 pM with T-01 MB IgG1 I253V. Also, the koff with T-01 MB IgG1 LALAP K288A is 0.000161 s⁻¹; in experiment [1], 0.000437 s⁻¹; with T-01 MB.v2 IgG1 WT it was below 1e-07 s⁻¹; with T-01 MB IgG1 I253A, below 1e-07 s⁻¹; with T-01 MB IgG1 WT it was below 1e-07 s⁻¹; with T-01 MB IgG1 K288A, below 1e-07 s⁻¹. The koff in the experiment with T-01 MB IgG2 K288A P329G was 9.13e-05 s⁻¹; with T-01 MB IgG4 WT, below 1e-07 s⁻¹; in [2] it was below 1e-07 s⁻¹; in the experiment with T-01 MB IgG2 WT, 0.00154 s⁻¹; with T-01 MB IgG1 P329G it was 2.49e-05 s⁻¹; with T-01 MB IgG1 LALAP I253A it was 0.000656 s⁻¹. In addition, the off-rate (koff) was 1.66e-05 s⁻¹ in [3] and below 1e-07 s⁻¹ with T-01 MB IgG1 I253V. The kon with T-01 MB IgG1 LALAP K288A was 601000 M⁻¹ s⁻¹; in experiment [1], 639000 M⁻¹ s⁻¹; in the experiment with T-01 MB.v2 IgG1 WT, 312000 M⁻¹ s⁻¹; with T-01 MB IgG1 I253A it was 605000 M⁻¹ s⁻¹; in the experiment with T-01 MB IgG1 WT, 672000 M⁻¹ s⁻¹; in the experiment with T-01 MB IgG1 K288A, 578000 M⁻¹ s⁻¹. In addition, the kon with T-01 MB IgG2 K288A P329G was determined as 694000 M⁻¹ s⁻¹; with T-01 MB IgG4 WT it was 835000 M⁻¹ s⁻¹; in [2], 431000 M⁻¹ s⁻¹; in the experiment with T-01 MB IgG2 WT, 758000 M⁻¹ s⁻¹; with T-01 MB IgG1 P329G it was 665000 M⁻¹ s⁻¹; with T-01 MB IgG1 LALAP I253A, 853000 M⁻¹ s⁻¹. Also, the values for the kon (in [3]; in the experiment with T-01 MB IgG1 I253V) were 558000 M⁻¹ s⁻¹ and 756000 M⁻¹ s⁻¹, respectively.

B4: human FcγRIIa (hFcγRIIa) (receptor, UniProt P12318 34-217, looked up)
chain: QAAAPPKAVLKLEPPWINVLQEDSVTLTCQGARSPESDSIQWFHNGNLIPTHTQPSYRFKANNNDSGEYTCQTGQTSLSDPVHLTVLSEWLVLQTPHLEFQEGETIMLRCHSWKDKPLVKVTFFQNGKSQKFSHLDPTFSIPQANHSHSGDYHCTGNIGYTLFSSKPVTITVQVPSMGSSSPMG
Consider B4, for which the binding result (with T-01 MB IgG1 LALAP K288A; in experiment [1]; with T-01 MB.v2 IgG1 WT; with T-01 MB IgG2 K288A P329G; in [2]; with T-01 MB IgG1 LALAP I253A) was “no binding (tested: serial dilutions 20-0.65 nM)” in each case. Also, the dissociation constant (Kd) with T-01 MB IgG1 I253A was below 1 pM; in the experiment with T-01 MB IgG1 WT it was below 1 pM; with T-01 MB IgG1 K288A, below 1 pM; in the experiment with T-01 MB IgG4 WT, 391 pM; in the experiment with T-01 MB IgG2 WT, 606 pM; in the experiment with T-01 MB IgG1 P329G, 249 pM. Moreover, the Kd in experiment [3] is 208 pM; in the experiment with T-01 MB IgG1 I253V, below 1 pM. The koff in the experiment with T-01 MB IgG1 I253A was below 1e-07 s⁻¹; in the experiment with T-01 MB IgG1 WT, below 1e-07 s⁻¹; with T-01 MB IgG1 K288A, below 1e-07 s⁻¹; with T-01 MB IgG4 WT it was 0.000445 s⁻¹; in the experiment with T-01 MB IgG2 WT, 0.000263 s⁻¹; with T-01 MB IgG1 P329G, 5.53e-05 s⁻¹. In addition, the koff in [3] is 0.000121 s⁻¹; with T-01 MB IgG1 I253V, below 1e-07 s⁻¹. The kon came out at 763000 M⁻¹ s⁻¹ in the experiment with T-01 MB IgG1 I253A; 963000 M⁻¹ s⁻¹ in the experiment with T-01 MB IgG1 WT; 1.07e+06 M⁻¹ s⁻¹ with T-01 MB IgG1 K288A; 1.14e+06 M⁻¹ s⁻¹ with T-01 MB IgG4 WT; 433000 M⁻¹ s⁻¹ in the experiment with T-01 MB IgG2 WT; 222000 M⁻¹ s⁻¹ in the experiment with T-01 MB IgG1 P329G. Moreover, the values for the kon (in experiment [3]; with T-01 MB IgG1 I253V) were 581000 M⁻¹ s⁻¹ and 1.09e+06 M⁻¹ s⁻¹, respectively.

B5: human FcγRIIb (hFcγRIIb) (receptor, UniProt P31994 43-217, looked up)
chain: TPAAPPKAVLKLEPQWINVLQEDSVTLTCRGTHSPESDSIQWFHNGNLIPTHTQPSYRFKANNNDSGEYTCQTGQTSLSDPVHLTVLSEWLVLQTPHLEFQEGETIVLRCHSWKDKPLVKVTFFQNGKSKKFSRSDPNFSIPQANHSHSGDYHCTGNIGYTLYSSKPVTITVQAP
Consider B5, for which the binding result (with T-01 MB IgG1 LALAP K288A; in [1]; with T-01 MB.v2 IgG1 WT; with T-01 MB IgG2 K288A P329G; in [2]; with T-01 MB IgG1 P329G) was “no binding (tested: serial dilutions 20-0.65 nM)” each time. In addition, the binding result with T-01 MB IgG1 LALAP I253A is reported as “no binding (tested: serial dilutions 20-0.65 nM)”. Also, the Kd with T-01 MB IgG1 I253A was below 1 pM; in the experiment with T-01 MB IgG1 WT, below 1 pM; with T-01 MB IgG1 K288A it was below 1 pM; with T-01 MB IgG4 WT it was 223 pM; in the experiment with T-01 MB IgG2 WT, 1610 pM; in experiment [3] it was 607 pM. Further, in the experiment with T-01 MB IgG1 I253V, the Kd is below 1 pM. The koff was below 1e-07 s⁻¹ in the experiment with T-01 MB IgG1 I253A; below 1e-07 s⁻¹ in the experiment with T-01 MB IgG1 WT; below 1e-07 s⁻¹ with T-01 MB IgG1 K288A; 0.000305 s⁻¹ with T-01 MB IgG4 WT; 0.00103 s⁻¹ with T-01 MB IgG2 WT; 0.000394 s⁻¹ in experiment [3]. In the experiment with T-01 MB IgG1 I253V, this molecule yielded a dissociation rate constant (koff) below 1e-07 s⁻¹. Further, the kon amounted to 1.39e+06 M⁻¹ s⁻¹ with T-01 MB IgG1 I253A; 1.19e+06 M⁻¹ s⁻¹ in the experiment with T-01 MB IgG1 WT; 1.25e+06 M⁻¹ s⁻¹ in the experiment with T-01 MB IgG1 K288A; 1.37e+06 M⁻¹ s⁻¹ with T-01 MB IgG4 WT; 637000 M⁻¹ s⁻¹ in the experiment with T-01 MB IgG2 WT; 649000 M⁻¹ s⁻¹ in experiment [3]. In the experiment with T-01 MB IgG1 I253V, the kon was 1.39e+06 M⁻¹ s⁻¹.

B6: PGDM1400 IgG1 (antibody, V domains shown)
VH: QAQLVQSGPEVRKPGTSVKVSCKAPGNTLKTYDLHWVRSVPGQGLQWMGWISHEGDKKVIVERFKAKVTIDWDRSTNTAYLQLSGLTSGDTAVYYCAKGSKHRLRDYALYDDDGALNWAVDVDYLSNLEFWGQGTAVTVSS
VL: DFVLTQSPHSLSVTPGESASISCKSSHSLIHGDRNNYLAWYVQKPGRSPQLLIYLASSRASGVPDRFSGSGSDKDFTLKISRVETEDVGTYYCMQGRESPWTFGQGTKVDIKR
As to B6, in the experiment with soluble CD4, the binding result was “no binding”. Moreover, in the experiment with BG5050 SOSIP.664 D368R, binding was put at a Kd of 38000 pM, the koff is 0.000262 s⁻¹ and the kon amounted to 6900 M⁻¹ s⁻¹.
